Reference: patent US20160177307
pKd: −log10 of the molar value.

Columns and labels:
Assay in all cases: filter
[1] = system: T1, VEGF-164 (Rattus norvegicus), P16612-2; settings: P=Nap-dU
T1 sequence: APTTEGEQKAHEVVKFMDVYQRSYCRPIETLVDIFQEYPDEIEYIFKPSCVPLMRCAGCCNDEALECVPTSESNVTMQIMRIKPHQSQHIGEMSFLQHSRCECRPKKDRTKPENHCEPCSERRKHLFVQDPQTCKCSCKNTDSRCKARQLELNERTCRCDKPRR

[2] = system: T2, VEGF-121 (Homo sapiens), P15692-9
T2 sequence: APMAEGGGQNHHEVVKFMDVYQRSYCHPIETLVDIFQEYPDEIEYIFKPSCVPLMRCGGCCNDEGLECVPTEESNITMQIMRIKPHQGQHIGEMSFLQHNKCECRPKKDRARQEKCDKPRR

[3] = system: T3, VEGF-165 (Homo sapiens), P15692-4
T3 sequence: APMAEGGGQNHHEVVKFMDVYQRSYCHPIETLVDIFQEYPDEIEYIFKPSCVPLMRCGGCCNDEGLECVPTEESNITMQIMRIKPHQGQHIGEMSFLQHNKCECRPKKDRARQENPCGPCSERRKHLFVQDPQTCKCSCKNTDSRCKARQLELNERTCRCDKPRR

[4] = target: PDGF-BB (platelet-derived growth factor BB) (Homo sapiens) (UniProt P01127)
[5] = Bn-dU, MBn-dU, Nap-dU, 2'-OMe, C3, 5 Heg between parts
[6] = Bn-dU, MBn-dU, Nap-dU, 2'-OMe, C3, 4 Heg between parts
[7] = Nap-dU, Bn-dU, MBn-dU, 2'-OMe, C3, 4 Heg between parts
[8] = Bn-dU, MBn-dU, Nap-dU, 2'-OMe, C3, 2 Heg between parts
[9] = Nap-dU, Bn-dU, MBn-dU, 2'-OMe, C3, 1 Heg between parts
[10] = PDGF-VEGF, no Heg linker, NapdU, BndU
[11] = Nap-dU, Bn-dU, MBn-dU, 2'-OMe, C3, 5 Heg between parts
[12] = Nap-dU, Bn-dU, MBn-dU, 2'-OMe, C3, 2 Heg between parts

PDGF-BB (platelet-derived growth factor BB) (Homo sapiens), sequence (P01127 82-190): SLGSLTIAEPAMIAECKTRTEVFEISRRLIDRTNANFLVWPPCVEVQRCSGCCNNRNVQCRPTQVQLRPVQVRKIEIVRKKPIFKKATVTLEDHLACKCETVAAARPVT

Work on “ATCAGCCGTTCAAGTGCTTGTAGGATTTAAATGGA [4867-31_40]” yielded a pKd [1] of 10.00, a pKd ([2]; P=Nap-dU) of 9.15 and a pKd ([3]; P=Nap-dU) of 9.85.
Sequence “TCAGCCGTTCAAGTGCTTGTAGGATTTAAATGGA [4867-31_41]” has a pKd [1] of 10.10, a pKd ([2]; P=Nap-dU) of 9.20 and a pKd ([3]; P=Nap-dU) of 9.89.
With “AGCCGTTCAAGTGCTTGTAGGATTTAAATGGAA [4867-31_37]” the pKd [1] was 10.40, the pKd ([2]; P=Nap-dU) was 9.68 and the pKd ([3]; P=Nap-dU) was 10.04.
For “GTTCAAGTGCTTGTAGGATTTAAATGGA [4867-31_61]”, the pKd [1] was 7.89, the pKd ([2]; NapdU at P) was 7.48 and the pKd ([3]; NapdU at P) was 8.54.
“AATCAGCCGTTCAAGTGCTTGTAGGATTTAAATGGAAT [4867-31_27]” showed a pKd [1] of 10.15, a pKd ([2]; P=Nap-dU) of 9.23 and a pKd ([3]; P=Nap-dU) of 9.96.
In the case of “CAATCAGCCGTTCAAGTGCTTGTAGGATTTAAATGGAA [4867-31_32]”, the pKd [1] was 10.22, the pKd ([2]; P=Nap-dU) was 9.29 and the pKd ([3]; P=Nap-dU) was 10.00.
With “TTACGTTACCGCGTTTATAGCGCCGTTCAAGTGCTTGTAGGATTTAAATGG [4149-8_416]” the pKd [4, 5] was 11.05, the pKd [2, 5] was 10.39 and the pKd [3, 5] was 10.52.
“TTACGTTACCGCGTTTATAGCGCCGTTCAAGTGCTTGTAGGATTTAAATGG [4149-8_415]” showed a pKd [4, 6] of 11.09, a pKd [2, 6] of 10.40 and a pKd [3, 6] of 10.52.
“CCGTTCAAGTGCTTGTAGGATTTAAATGGTTACGTTACCGCGTTTATAGCG [4149-8_411]” gave a pKd [4, 7] of 11.14, a pKd [2, 7] of 10.70 and a pKd [3, 7] of 10.35.
For “CAGCCGTTCAAGTGCTTGTAGGATTTAA [4867-31_48]”, the pKd [1] was 6.85.
“TTACGTTACCGCGTTTATAGCGCCGTTCAAGTGCTTGTAGGATTTAAATGG [4149-8_414]” was tested, and the pKd [4, 8] was 11.00, the pKd [2, 8] was 10.64 and the pKd [3, 8] was 10.29.
For “AATCAGCCGTTCAAGTGCTTGTAGGATTTAAATGGAA [4867-31_33]”, the pKd [1] was 10.40, the pKd ([2]; P=Nap-dU) was 9.26 and the pKd ([3]; P=Nap-dU) was 9.96.
For “CCGTTCAAGTGCTTGTAGGATTTAAATGGA [4867-31_59]”, the pKd [1] was 9.70, the pKd ([2]; NapdU at P) was 9.85 and the pKd ([3]; NapdU at P) was 9.80.
Sequence “CGACAGCATGTATGCACATCTCCGTTCAAGTGCTTGTAGGATTTAAATGG [5169-4_99]” has a pKd ([4]; PDGF-6Heg-VEGF, NapdU, 2'-OMe) of 11.68 and a pKd ([2]; PDGF-6Heg-VEGF, NapdU, 2'-OMe) of 9.92.
Work on “CCGTTCAAGTGCTTGTAGGATTTAAATGGTTACGTTACCGCGTTTATAGCG [4149-8_408]” yielded a pKd [4, 9] of 10.37, a pKd [2, 9] of 10.36 and a pKd [3, 9] of 10.39.
“TCAATCAGCCGTTCAAGTGCTTGTAGGATTTAAATGGA [4867-31_22]” showed a pKd [1] of 9.27, a pKd ([2]; NapdU at P) of 9.09 and a pKd ([3]; NapdU at P) of 9.59.
“CAATCAGCCGTTCAAGTGCTTGTAGGATTTAAATGGAAT [4867-31_26]” was tested, and the pKd [1] was 10.15, the pKd ([2]; P=Nap-dU) was 9.31 and the pKd ([3]; P=Nap-dU, SB18T, 37 C) was 10.12.
In the case of “TCAGCCGTTCAAGTGCTTGTAGGATTTAAATGGAA [4867-31_35]”, the pKd [1] was 10.30 and the pKd ([3]; P=Nap-dU) was 9.96.
With “TTACGTTACACGCGTTTATAGCGCCGTTCAAGTGCTTTAGATTTAAATG [4149-8_317]” the pKd [4, 10] was 10.20 and the pKd [2, 10] was 10.09.
“AGCCGTTCAAGTGCTTGTAGGATTTAAATGGAAT [4867-31_31]” gave a pKd [1] of 9.92, a pKd ([2]; P=Nap-dU) of 9.00 and a pKd ([3]; P=Nap-dU) of 9.77.
“AGCCGTTCAAGTGCTTGTAGGATTTAAAT [4867-31_53]” showed a pKd ([2]; NapdU at P) of 7.72 and a pKd ([3]; NapdU at P) of 8.49.
With “CGTTCAAGTGCTTGTAGGATTTAAATGGA [4867-31_60]” the pKd [1] was 8.85, the pKd ([2]; NapdU at P) was 8.66 and the pKd ([3]; NapdU at P) was 9.21.
In the case of “CAGCCGTTCAAGTGCTTGTAGGATTTAAATGGAAT [4867-31_30]”, the pKd [1] was 9.82, the pKd ([2]; P=Nap-dU) was 8.85 and the pKd ([3]; P=Nap-dU) was 9.70.
“CCGTTCAAGTGCTTGTAGGATTTAAATGGTTACGTTACCGCGTTTATAGCG [4149-8_412]” was tested, and the pKd [4, 11] was 11.07, the pKd [2, 11] was 10.70 and the pKd [3, 11] was 10.35.
With “CCGTTCAAGTGCTTGTAGGATTTAAATGGTTACGTTACCGCGTTTATAGCG [4149-8_409]” the pKd [4, 12] was 9.22, the pKd [2, 12] was 10.59 and the pKd [3, 12] was 10.54.
With “ATCAGCCGTTCAAGTGCTTGTAGGATTTAAATGGAA [4867-31_34]” the pKd [1] was 10.30, the pKd ([2]; P=Nap-dU) was 9.33 and the pKd ([3]; P=Nap-dU) was 9.46.
